The source of these data is PMC3699631, “Posttranslational Modifications of the Histone 3 Tail and Their Impact on the Activity of Histone Lysine Demethylases In Vitro” (PLoS ONE, 2013).

One test relates to PHF8. Conditions: PHF8 with PHD domain; ref [5]; cited from earlier work. The source says: The enzyme kinetics of FL-KDM4A and ...
Another test addresses T1, human cc-KDM4C (Homo sapiens, UniProt Q9H3R0).
T1 construct: Truncated constructs of KDM4A and KDM4C containing only the catalytic cores (cc-KDM4A/cc-KDM4C); made in house
T1 sequence (Q9H3R0 1-349 limits assumed): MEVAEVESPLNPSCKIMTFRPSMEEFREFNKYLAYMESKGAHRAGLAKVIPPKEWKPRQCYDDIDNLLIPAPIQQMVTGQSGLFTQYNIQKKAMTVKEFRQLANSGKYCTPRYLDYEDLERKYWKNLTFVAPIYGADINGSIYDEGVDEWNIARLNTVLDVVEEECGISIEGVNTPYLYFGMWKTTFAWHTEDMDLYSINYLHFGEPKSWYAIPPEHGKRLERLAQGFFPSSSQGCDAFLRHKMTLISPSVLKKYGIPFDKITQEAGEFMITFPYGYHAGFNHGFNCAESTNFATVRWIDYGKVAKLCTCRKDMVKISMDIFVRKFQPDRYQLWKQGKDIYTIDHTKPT
As to the kind of experiment: FDH-assay enzyme kinetics of H3 peptide demethylation, truncated KDM4C. The test is classed as biochemical. Conditions: for K m / demethylation / catalytic activity (in words) / k cat / k cat /K m: FDH-assay; for K m: 50 mM HEPES (pH 7.5), 50 mM NaCl, 50 µM FeSO4, 500 µM α-KG, 500 µM ascorbate, 2 mM NAD, substrate 10–1000 µM, e.g. 4.88 µM KDM4C, NADH fluorescence 15–30 minutes; for K m / k cat: triplicate; for demethylation / catalytic activity (in words): compared to H3(1–24)K9me3 where a change is stated; for k cat: pH 7.5, NADH fluorescence; for k cat /K m: pH 7.5, triplicate, SD by propagation of errors, unit: (min^−1 * µM^−1) * 10^3; for fold decrease in catalytic activity (k cat/K m): compared to H3(1–24)K9me3. The method, then:
(§1) The enzyme kinetics were measured using a Formaldehyde DeHydrogenase Assay (FDH-Assay) and the demethylation of substrates was confirmed when possible by MALDI-TOF-MS, see File S1 for details. The test solution contained 50 mM HEPES (pH 7.5), 50 mM NaCl, 50 µM FeSO4, 500 µM α-KG, 500 µM ascorbate, 2 mM NAD, approximately 0.05 unit of FDH and e.g. 4.88 µM KDM4C (enzyme concentration varied between batches). The reference solution was comprised of the same except substrate. The assay was initiated by adding various concentrations of H3 peptide substrates e.g. H3(1–24)K9me3 (10–1000 µM) and the increase in NADH fluorescence was measured over 15–30 minutes in 30 second intervals. Data analysis and kinetic values were obtained using programs Excel and GraphPad Prism® 5.0. For details, see File S1.
(§2) The standard deviations for k cat/K m were calculated using the statistic law of propagation of errors. Standard errors for Michaelis-Menten Kinetics were automatically given in GraphPad Prism®, with a 95% confidence interval. All enzyme kinetic curves were done in triplicate unless otherwise stated.
(§3) Test for activity of enzyme using the fluorescence FDH assay, determination of Vmax and Km of enzymes with substrate, expression and purification of cc-KDM4A and cc-KDM4C software and parameters for the FDH coupled assay, see Lohse et al.^21
(§4) The standard deviations for kcat/ Km were calculated using the statistic law of propagation of errors. Standard errors for Michaelis-Menten Kinetics were automatically given in GraphPad Prism®, with a 95 % confidence interval. All enzyme kinetic curves were done in triplicate unless otherwise stated.

The target in a further test is T2, human cc-KDM4A (Homo sapiens, UniProt O75164).
T2 construct: Truncated constructs of KDM4A and KDM4C containing only the catalytic cores (cc-KDM4A/cc-KDM4C); made in house
T2 sequence (O75164 1-350 limits assumed): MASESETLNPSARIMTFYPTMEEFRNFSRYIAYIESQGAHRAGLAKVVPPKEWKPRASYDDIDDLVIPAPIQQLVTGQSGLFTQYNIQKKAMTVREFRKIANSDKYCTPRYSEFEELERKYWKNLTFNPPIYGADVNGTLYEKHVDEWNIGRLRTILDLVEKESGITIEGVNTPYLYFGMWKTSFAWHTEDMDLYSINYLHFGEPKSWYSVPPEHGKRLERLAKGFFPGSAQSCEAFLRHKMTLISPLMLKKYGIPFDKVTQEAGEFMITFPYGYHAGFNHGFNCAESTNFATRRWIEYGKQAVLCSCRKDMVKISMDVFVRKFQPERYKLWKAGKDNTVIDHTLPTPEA
As to the kind of experiment: FDH-assay enzyme kinetics of H3 peptide demethylation, truncated KDM4A. The test is classed as biochemical. The settings on record: for K m / k cat / k cat /K m / demethylation / catalytic activity (in words): FDH-assay; for K m: 50 mM HEPES (pH 7.5), 50 mM NaCl, 50 µM FeSO4, 500 µM α-KG, 500 µM ascorbate, 2 mM NAD, substrate 10–1000 µM, NADH fluorescence 15–30 minutes; for K m / k cat / k cat /K m: triplicate; for k cat / k cat /K m: pH 7.5; for k cat: NADH fluorescence; for k cat /K m: SD by propagation of errors, unit: min^−1 * µM^−1 * 10^3; for demethylation / catalytic activity (in words): compared to H3(1–24)K9me3 where a change is stated. The method, then:
as §1, §2, §3, §4

With “H3(1–24)K4me3-K9me2: H3(1–24) substrate with trimethylated K4 and dimethylated K9”, in the test with PHF8, the “change of K m” value was “a decrease in K m” and the “change of k cat” value is “an increase in k cat”.
Consider “H3(1–24)K9me3K14(ac): histone peptide containing H3K9me3 in combination with acetylation of K14”, for which, in the test with human cc-KDM4C, the K m is 35.2±20, the “demethylation / catalytic activity (in words)” value is “a decrease”, the k cat came to 0.1±0.01 and the “k cat /K m” value worked out at 2.8±0.2. For the same substance, the “fold decrease in catalytic activity (k cat/K m)” value with human cc-KDM4C worked out at 3 fold. In addition, the “fold difference in catalytic activity between cc-KDM4A and cc-KDM4C” value with human cc-KDM4A (cc-KDM4A versus cc-KDM4C) turned out to be 10 fold. In addition, in the test with human cc-KDM4A (cc-KDM4A), the K m is on record as 33±4, the k cat turned out to be 1.0±0.03, the “k cat /K m” value is 30.3±3.8 and the “demethylation / catalytic activity (in words)” value is “an increase in the enzymatic catalytic efficiency”. Besides, the “fold increase in k cat/K m” value in the test with human cc-KDM4A (cc-KDM4A, compared to H3(1–24)K9me3) is 3 fold.
Turning to “H3(1–24)T3(ph)K9me3: phosphorylation of threonine 3 in combination with lysine 9 trimethylation”, in the test with human cc-KDM4C, the K m stood at 207±50, the “demethylation / catalytic activity (in words)” value is listed as “did not prevent demethylation”, the k cat is given as 0.38±0.04 and the “k cat /K m” value is 1.8±0.1. For the same substance, in the test with human cc-KDM4C, the “fold decrease in catalytic activity (k cat/K m)” value is 5 fold. Moreover, in the test with human cc-KDM4A (cc-KDM4A), the K m came to 162±15, the k cat turned out to be 1.2±0.04, the “k cat /K m” value was 7.4±0.7 and the “demethylation / catalytic activity (in words)” value was “did not prevent demethylation”.
